According to article PMC3781045:

Biological target: T1, rZur (ZurPA, Np20) (Pseudomonas aeruginosa PAO1?) (UniProt Q9HT74)
T1 sequence: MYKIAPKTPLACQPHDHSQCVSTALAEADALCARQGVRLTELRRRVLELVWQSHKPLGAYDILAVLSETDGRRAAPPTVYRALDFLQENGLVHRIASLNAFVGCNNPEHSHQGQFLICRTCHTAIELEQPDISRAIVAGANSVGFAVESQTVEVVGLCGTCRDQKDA
Assay: EMSA
Conditions: 10 mM Tris-HCl pH 8.0, 40 mM KCl, 10 mM MgCl2, 1 mM DTT, 5% glycerol, 1 uM ZnCl2, 0.5 ug salmon sperm DNA; room temperature 30 min; gel at 4 C

## CGGCGAAGCCAGCAGGAACAGGGCGAAGCAGGCGGACAGCAGGGCAAAGGGACGCAGGGTCACGGCGGCACTCACATGAAAGGTGGTTAGCGGGTAATATAATAACGTCTCTACCCTCGAGCGTCGCAGCCCATGTACAAGATTGCGCCCAAGACCCCGCTGGCCTGCCAGCCCCATGACCACAGCCAGTGCGTCAGCA (double strand) [znuA promoter fragment]
  binding: binds
